# The RNAGym collection of RNA variant scans (doi:10.7554/elife.90254)
# B1: LINE1-mini (parent)
# chain: GGCAGAGCUCAACACAGCGUGGCAAAGUGGCUGUGGCUAGACUGCC
# Variants of: B1
# Experiment: self-cleavage, relative activity (ratio to wild type); higher = more cleavage; in vitro, sequencing; the parent is a self-cleaving ribozyme
row,Variant,self-cleavage
1,A25G G35A,0.11
2,A25G G35U,0.06
3,A25G G35C,0.04
4,A25C C31G,0.06
5,A25C C31A,0.09
6,A25C C31U,0.12
7,A24G G40C,0.18
8,A24G G40U,0.16
9,A24G G40A,0.13
10,A24G C45G,0.22
11,A24G C45A,1.47
12,A24G C45U,1.23
13,A24G C46G,0.83
14,A24G C46A,1.75
15,A24G C46U,0.93
16,A24G A25U,1.3
17,A24G A25G,0.75
18,A24U G33C,0.06
19,A24U G33A,0.05
20,A24U G33U,0.08
21,A24U G40A,0.14
22,A24U G40C,0.11
23,A24U G40U,0.19
24,A25U A26U,1.23

row,Variant,self-cleavage
1,A25U A26C,1.79
2,A25U A26G,0.71
3,A25G C45U,0.45
4,A25G C45A,0.86
5,A25G C45G,0.17
6,A24U G35U,0.38
7,A24U G35C,0.09
8,A24U G35A,0.12
9,A25G G27U,0.48
10,A25G G27C,0.16
11,A25G G27A,0.37
12,A25C A39U,0.52
13,A25C A39G,0.07
14,A25C A39C,0.08
15,A25C C37U,0.06
16,A25C C37G,0.06
17,A25C C37A,0.11
18,A25G U28C,0.84
19,A25G U28G,0.57
20,A25G U28A,1.01
21,A24U G44U,0.19
22,A24U G44C,0.67
23,A24U G44A,0.44
24,A25C G29C,0.56

row,Variant,self-cleavage
1,A25C G29A,0.75
2,A25C G29U,1.19
3,A25C G30C,1.64
4,A25C G30U,1.11
5,A25C G30A,0.44
6,A24U U43C,0.18
7,A24U U43G,0.03
8,A24U U43A,0.3
9,A25C C45G,0.11
10,A25C C45A,0.23
11,A25C C45U,0.49
12,A24U U28C,0.69
13,A24U U28G,0.39
14,A24U U28A,1.25
15,A24U A39C,0.23
16,A24U A39G,0.14
17,A24U A39U,1.99
18,A24G G33A,0.07
19,A24G G33U,0.08
20,A24G G33C,0.06
21,A24G G36A,0.17
22,A24G G36U,0.1
23,A24G G36C,0.11
24,A24G G35U,0.13

row,Variant,self-cleavage
1,A24G G35A,0.12
2,A24G G35C,0.17
3,A25U G29A,0.79
4,A25U G29C,0.38
5,A25U G29U,2.16
6,A25U C31U,0.23
7,A25U C31G,0.1
8,A25U C31A,0.13
9,A25C A26C,1.13
10,A25C A26U,0.68
11,A24C G44A,0.18
12,A24C G44U,0.13
13,A24C G44C,0.47
14,A25G,0.73
15,A25C,0.66
16,A25U,1.21
17,A25G U43C,0.1
18,A25G U43A,0.13
19,A25G A41C,0.04
20,A25G A41U,0.19
21,A25G A41G,0.26
22,A24U U38C,1.36
23,A24U U38G,0.02
24,A24U U38A,0.34

row,Variant,self-cleavage
1,A25G A39C,0.22
2,A25G A39G,0.07
3,A25G A39U,0.81
4,A25C U34G,0.06
5,A25C U34A,0.12
6,A25C U34C,0.08
7,A24U U34G,0.24
8,A24U U34C,0.09
9,A24U U34A,0.08
10,A25C G44C,0.23
11,A25C G44A,0.42
12,A25C G44U,0.16
13,A25G C31U,0.13
14,A25G C31A,0.1
15,A25G C31G,0.27
16,A24G C42A,0.19
17,A24G C42G,0.06
18,A24G C42U,0.41
19,A24U G27C,0.61
20,A24U G27U,0.8
21,A24U G27A,0.92
22,A25C U28A,1.37
23,A25C U28G,0.65
24,A25C U28C,0.44

row,Variant,self-cleavage
1,A25G G36U,0.05
2,A25G G36C,0.04
3,A25G G36A,0.15
4,A25G G40C,0.06
5,A25G G40U,0.07
6,A25G G40A,0.04
7,A24U C46U,1.09
8,A24U C46G,1.03
9,A24U C46A,2.01
10,A24G G29A,0.8
11,A24G G29U,1.07
12,A24G G29C,0.48
13,A24C U38G,0.01
14,A24C U38A,0.3
15,A24C U38C,0.31
16,A25U G40U,0.14
17,A25U G40A,0.18
18,A25U G40C,0.09
19,A25U C42U,0.4
20,A25U C42A,0.24
21,A25U C42G,0.06
22,A25U G27U,0.74
23,A25U G27C,0.52
24,A25U G27A,0.59

row,Variant,self-cleavage
1,A25G C42A,0.09
2,A25G C42U,0.26
3,A25G C42G,0.05
4,A25C A41C,0.04
5,A25C A41G,0.28
6,A25C A41U,0.52
7,A24U A25C,1.63
8,A24U A25G,1.28
9,A24U A25U,1.48
10,A25G C46U,0.4
11,A25G C46A,0.55
12,A25G C46G,0.78
13,A25C U32G,0.05
14,A25C U32A,0.05
15,A25C U32C,0.25
16,A24U G30A,0.97
17,A24U G30C,0.62
18,A24U G30U,1.46
19,A25C U43G,0.12
20,A25C U43A,0.09
21,A25C U43C,0.04
22,A25U G33U,0.13
23,A25U G33A,0.12
24,A25U G33C,0.04

row,Variant,self-cleavage
1,A24U C42U,0.4
2,A24U C42A,0.18
3,A24U C42G,0.06
4,A24G G27U,0.57
5,A24G G27A,0.98
6,A24G G27C,0.9
7,A24G C31A,0.15
8,A24G C31U,0.29
9,A24G C31G,0.05
10,A25C G27U,0.46
11,A25C G27A,0.55
12,A25C G27C,0.39
13,A24G U43C,0.2
14,A24G U43A,0.11
15,A24G U43G,0.19
16,A24G C37G,0.1
17,A24G C37A,0.09
18,A24G C37U,0.05
19,A25U G36U,0.07
20,A25U G36A,0.12
21,A25U G36C,0.05
22,A24C U43G,0.37
23,A24C U43C,0.1
24,A24C U43A,0.02

row,Variant,self-cleavage
1,A24U C37G,0.05
2,A24U C37U,0.07
3,A24U C37A,0.05
4,A25C G35U,0.12
5,A25C G35A,0.11
6,A25C G35C,0.1
7,A25G G29A,0.32
8,A25G G29C,0.65
9,A25G G29U,1.14
10,A25U G30C,0.46
11,A25U G30A,1.17
12,A25U G30U,1.75
13,A25U G44U,0.4
14,A25U G44C,0.29
15,A25U G44A,0.28
16,A25U C45G,0.19
17,A25U C45A,0.41
18,A25U C45U,2.13
19,A24G A39C,0.27
20,A24G A39G,0.07
21,A24G A39U,1.31
22,A25G G33C,0.04
23,A25G G33A,0.04
24,A25G G33U,0.05

row,Variant,self-cleavage
1,A24U G36C,0.11
2,A24U G36U,0.05
3,A24U G36A,0.22
4,A25U C46A,1.01
5,A25U C46U,1.04
6,A25U C46G,0.66
7,A24G G44U,0.15
8,A24G G44C,0.66
9,A24G G44A,1
10,A24G U38A,0.76
11,A24G U38G,0.03
12,A24G U38C,0.71
13,A25G G44A,0.21
14,A25G G44U,0.28
15,A25G G44C,0.19
16,A25G C37A,0.05
17,A25G C37U,0.06
18,A25G C37G,0.03
19,A25U U28A,0.5
20,A25U U28C,1.19
21,A25U U28G,0.82
22,A25U U32C,0.27
23,A25U U32G,0.3
24,A25U U32A,0.04

row,Variant,self-cleavage
1,A25U U34G,0.16
2,A25U U34A,0.16
3,A25U U34C,0.13
4,A25U C37G,0.02
5,A25U C37U,0.03
6,A25U C37A,0.06
7,A25G G30A,0.97
8,A25G G30U,0.89
9,A25G G30C,1.19
10,A24U A41C,0.07
11,A24U A41G,0.52
12,A24U A41U,0.61
13,A25U A41G,0.38
14,A25U A41U,0.6
15,A25U A41C,0.07
16,A24C U32C,0.05
17,A24C U32G,0.13
18,A24C U32A,0.08
19,A24U A26U,1.34
20,A24U A26G,0.84
21,A25G U34C,0.07
22,A25G U34A,0.06
23,A25G U34G,0.12
24,A24C U28C,0.69

row,Variant,self-cleavage
1,A24C U28G,0.35
2,A24C U28A,0.6
3,A24U G29A,1.72
4,A24U G29C,0.58
5,A24U G29U,1.84
6,A24G G30C,1.12
7,A24G G30U,2.49
8,A24G G30A,1.11
9,A25C C46U,0.56
10,A25C C46A,0.36
11,A25C C46G,0.75
12,A24G U28G,0.45
13,A24G U28A,0.94
14,A24G U28C,0.72
15,A24G,1.1
16,A24U,1.42
17,A24G U34A,0.09
18,A24G U34G,0.14
19,A24G U34C,0.1
20,A24G A26U,1.28
21,A24G A26C,1.06
22,A24G A26G,0.5
23,A25G U38C,0.14
24,A25G U38A,0.46

row,Variant,self-cleavage
1,A25G U38G,0.01
2,A24U C45A,0.31
3,A24U C45U,0.91
4,A24U C45G,0.3
5,A25C G36U,0.11
6,A25C G36A,0.21
7,A25C G36C,0.07
8,A25G A26G,0.34
9,A25G A26C,0.49
10,A25G A26U,0.1
11,A24C U34G,0.05
12,A24C U34C,0.12
13,A24C U34A,0.07
14,A24G A41C,0.04
15,A24G A41G,0.6
16,A24G A41U,0.67
17,A25C U38G,0.02
18,A25C U38A,0.22
19,A25C U38C,0.46
20,A24G U32G,0.14
21,A24G U32A,0.14
22,A24G U32C,0.24
23,A24U C31U,0.25
24,A24U C31G,0.08

row,Variant,self-cleavage
1,A24U C31A,0.07
2,A25C C42U,0.41
3,A25C C42A,0.11
4,A25C C42G,0.04
5,A25G U32C,0.06
6,A25G U32A,0.11
7,A25G U32G,0.12
8,A24U U32G,0.12
9,A24U U32C,0.2
10,A24U U32A,0.07
11,A25U G35C,0.09
12,A25U G35A,0.12
13,A25U G35U,0.16
14,A25C G40U,0.08
15,A25C G40C,0.06
16,A25C G40A,0.1
17,A25U A39U,0.86
18,A25U A39G,0.07
19,A25U A39C,0.23
20,A25C G33C,0.04
21,A25C G33U,0.15
22,A25C G33A,0.05
